Numbering of substitutions follows the chain as printed.

Among the targets are 6SK3β(h) (human, UniProt P49841 1-420); Arg(h) (human, UniProt P42684 38-1182, limits assumed); MEK1(h) (human, UniProt Q02750 1-393); Abl(T315I)(h) (human, UniProt P00519 27-1130, limits assumed); CaMKIIγ(h) (human, UniProt Q13555 1-558, limits assumed); EGFR(T790M,L858R)(h) (human, UniProt P00533 696-1210, limits assumed); Abl(Y253F)(h) (human, UniProt P00519 27-1130, limits assumed); SAPK2a(h) (human, UniProt Q16539 1-360).

Common to all, as to test: cell-based or functional assay
Another assay has as its target T1, Fms(h) (human, UniProt P07333 538-972, limits assumed).
T1 sequence (looked up): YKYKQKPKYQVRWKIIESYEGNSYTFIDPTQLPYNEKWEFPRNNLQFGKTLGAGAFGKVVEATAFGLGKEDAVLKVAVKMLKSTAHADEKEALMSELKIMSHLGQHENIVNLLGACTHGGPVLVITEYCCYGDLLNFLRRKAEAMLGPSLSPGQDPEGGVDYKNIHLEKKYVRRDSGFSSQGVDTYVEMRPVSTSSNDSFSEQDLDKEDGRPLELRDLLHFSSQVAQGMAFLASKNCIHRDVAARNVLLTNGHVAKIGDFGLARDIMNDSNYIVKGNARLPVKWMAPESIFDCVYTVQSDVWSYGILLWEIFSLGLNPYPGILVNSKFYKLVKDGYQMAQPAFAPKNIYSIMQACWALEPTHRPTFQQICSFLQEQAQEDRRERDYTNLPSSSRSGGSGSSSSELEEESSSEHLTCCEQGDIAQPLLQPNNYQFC

In another assay the target is T2, Fms(Y969C)(h) (human, UniProt P07333 538-972, limits assumed).
T2 sequence (looked up): T1 sequence (looked up) with Y432C

A further assay deals with T3, Flt1(h) (human, UniProt P17948 781-1338, limits assumed).
T3 sequence (looked up): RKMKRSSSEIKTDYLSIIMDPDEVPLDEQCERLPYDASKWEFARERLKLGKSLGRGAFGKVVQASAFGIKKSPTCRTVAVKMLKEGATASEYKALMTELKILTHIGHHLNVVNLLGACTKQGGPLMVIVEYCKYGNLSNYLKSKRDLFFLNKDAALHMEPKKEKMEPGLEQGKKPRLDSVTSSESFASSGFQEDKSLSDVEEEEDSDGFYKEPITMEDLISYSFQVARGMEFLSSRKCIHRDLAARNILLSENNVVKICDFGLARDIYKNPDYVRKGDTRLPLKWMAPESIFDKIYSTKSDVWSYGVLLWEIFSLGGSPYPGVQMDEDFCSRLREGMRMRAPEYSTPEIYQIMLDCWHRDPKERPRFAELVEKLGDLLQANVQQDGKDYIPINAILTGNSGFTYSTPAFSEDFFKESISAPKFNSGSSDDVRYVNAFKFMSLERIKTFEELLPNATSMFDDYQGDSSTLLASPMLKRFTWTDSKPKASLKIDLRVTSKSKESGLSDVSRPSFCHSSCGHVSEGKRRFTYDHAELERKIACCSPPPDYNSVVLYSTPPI

The target in a further assay is T4, EphA2(h) (human, UniProt P29317 559-976, limits assumed).
T4 sequence (looked up): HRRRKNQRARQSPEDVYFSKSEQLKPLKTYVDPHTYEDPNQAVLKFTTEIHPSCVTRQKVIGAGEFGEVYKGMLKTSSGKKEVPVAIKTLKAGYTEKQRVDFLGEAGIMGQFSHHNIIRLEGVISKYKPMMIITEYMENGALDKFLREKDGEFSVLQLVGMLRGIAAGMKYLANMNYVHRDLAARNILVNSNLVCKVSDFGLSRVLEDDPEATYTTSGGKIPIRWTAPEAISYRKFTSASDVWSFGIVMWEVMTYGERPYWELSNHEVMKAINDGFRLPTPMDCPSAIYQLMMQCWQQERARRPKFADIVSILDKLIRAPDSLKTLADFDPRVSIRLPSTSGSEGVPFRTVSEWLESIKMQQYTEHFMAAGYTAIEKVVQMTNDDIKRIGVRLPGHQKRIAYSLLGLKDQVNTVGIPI

Another assay concerns the target T5, Itk(h) (human, UniProt Q08881 352-620, limits assumed).
T5 sequence (looked up): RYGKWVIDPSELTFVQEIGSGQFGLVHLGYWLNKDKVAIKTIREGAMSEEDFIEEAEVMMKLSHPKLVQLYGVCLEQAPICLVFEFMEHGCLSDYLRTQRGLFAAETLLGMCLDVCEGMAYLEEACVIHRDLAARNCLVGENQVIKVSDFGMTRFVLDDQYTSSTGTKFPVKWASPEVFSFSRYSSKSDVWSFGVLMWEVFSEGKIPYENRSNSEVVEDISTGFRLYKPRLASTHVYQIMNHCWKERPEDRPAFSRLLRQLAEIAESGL

FAKLAARLYRKALARQLGVAA [MMI-0300]: the “% activity, 100 µM” value in the assay with 6SK3β(h) was determined as 205%; with Fms(h), 45%; with Arg(h) it was 72%; with MEK1(h), 77%; with Fms(Y969C)(h), 72%; with Abl(T315I)(h), 97%. Also, the “% activity, 100 µM” value in the assay with CaMKIIγ(h) stood at 5%; in the assay with EGFR(T790M,L858R)(h) it was 85%; in the assay with Abl(Y253F)(h) it was 86%; with SAPK2a(h), 90%; with Flt1(h) it was 69%; in the assay with EphA2(h) it was 31%. Also, the “% activity, 100 µM” value with Itk(h) came to 77%.
In the case of KAFAKLAARLYRKALARQLGVAA [MMI-0400], the “% activity, 100 µM” value stood at 202% with 6SK3β(h); 37% in the assay with Fms(h); 84% with Arg(h); 77% with MEK1(h); 91% with Fms(Y969C)(h); 105% with Abl(T315I)(h). Further, the “% activity, 100 µM” value was determined as 3% in the assay with CaMKIIγ(h); 78% with EGFR(T790M,L858R)(h); 78% in the assay with Abl(Y253F)(h); 85% with SAPK2a(h); 48% with Flt1(h); 17% with EphA2(h). Besides, the “% activity, 100 µM” value in the assay with Itk(h) came out at 63%.
